PMC4467794

Target: Mcx1-3xFLAG, wildtype, purified recombinant (S. cerevisiae) (UniProt P38323)
Assay: co-IP

Chain of Mcx1-3xFLAG, wildtype, purified recombinant (S. cerevisiae) (P38323 14-520): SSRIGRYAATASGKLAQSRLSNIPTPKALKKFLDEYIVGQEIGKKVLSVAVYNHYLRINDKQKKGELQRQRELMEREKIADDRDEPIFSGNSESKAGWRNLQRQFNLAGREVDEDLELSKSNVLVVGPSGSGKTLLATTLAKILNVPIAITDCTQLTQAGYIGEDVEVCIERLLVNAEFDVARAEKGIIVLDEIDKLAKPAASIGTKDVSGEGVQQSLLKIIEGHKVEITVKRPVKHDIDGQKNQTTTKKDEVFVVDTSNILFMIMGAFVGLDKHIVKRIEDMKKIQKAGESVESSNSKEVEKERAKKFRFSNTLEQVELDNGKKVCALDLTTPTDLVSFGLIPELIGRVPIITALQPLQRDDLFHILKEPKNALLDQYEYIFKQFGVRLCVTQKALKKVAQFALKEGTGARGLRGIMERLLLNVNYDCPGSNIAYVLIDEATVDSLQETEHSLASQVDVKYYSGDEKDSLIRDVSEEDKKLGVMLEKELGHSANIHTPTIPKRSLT

fold amount bound relative to holoHem1: 10 fold
Substance: apoHem1 (PLP-free Hem1, yeast ALA synthase), purified recombinant (from UniProt P09950 23-548) (enzyme)
